In assay [1] the target is A*11:01 (human), P04439. The conditions noted are these: modification not given.
In assay [2] the target is A*03:01 (human), P04439. Particulars: modification not given.
Assay [3] deals with A*24:02 (human), P04439. Particulars: modification not given.
In assay [4] the target is A*11:01 (human), P04439. Particulars: modification not given. This is another data set of the same source.
The target in assay [5] is T1, A*03:01 (human), P04439.
T1 chain: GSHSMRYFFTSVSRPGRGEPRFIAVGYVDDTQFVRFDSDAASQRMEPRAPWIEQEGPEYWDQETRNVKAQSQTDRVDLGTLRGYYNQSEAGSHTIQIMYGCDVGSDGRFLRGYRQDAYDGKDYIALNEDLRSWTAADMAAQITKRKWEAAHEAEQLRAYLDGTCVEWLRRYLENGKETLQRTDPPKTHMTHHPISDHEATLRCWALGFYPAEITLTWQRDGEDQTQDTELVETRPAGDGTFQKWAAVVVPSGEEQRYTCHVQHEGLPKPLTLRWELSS
The conditions noted are these: modification not given.

In assay [6] the target is HLA-B*40:01. Particulars: chains peptide; modification not given.
The target in assay [7] is HLA-A*32:01. Particulars: chains peptide; modification not given.
Assay [8] has as its target A*24:02 (human), P04439. The conditions noted are these: modification not given. The source holds these as a separate data set.
In assay [9] the target is HLA-B*15:01. Particulars: chains peptide; modification not given.
Assay [10] concerns the target HLA-B*40:01. The conditions noted are these: chains peptide; modification not given. The source holds these as a separate data set.
Assay [11] deals with HLA-A*32:01. Particulars: chains peptide; modification not given. This is another data set of the same source.
For assay [12], the target named is HLA-B*40:01. Particulars: chains peptide; modification not given. The source holds these as a separate data set.
The target of assay [13] is HLA-A*32:01. The conditions noted are these: chains peptide; modification not given. The source holds these as a separate data set.
Assay [14] has as its target A*11:01 (human), P04439. The conditions noted are these: modification not given. The source holds these as a separate data set.
In assay [15] the target is T1, A*03:01 (human), P04439. Particulars: modification not given.
Assay [16] concerns the target A*11:01 (human), P04439. The conditions noted are these: modification not given. The source holds these as a separate data set.
For assay [17], the target named is A*03:01 (human), P04439. Particulars: modification not given. The source holds these as a separate data set.
The target of assay [18] is A*03:01 (human), P04439. The assay is described as follows: ProImmune REVEAL MHC class I-peptide binding assay.
The target of assay [19] is A*11:01 (human), P04439. Put plainly: ProImmune REVEAL MHC class I-peptide binding assay.

The source of these data is patent US20180280496A1.

Read-outs that look alike come from different tables or passages of the source.

In general, IC50 refers to the point on the concentration scale where inhibition reaches its midpoint. High values mean a need for much substance, low ones inhibition by little substance. Consider ALKLSWFKK [SEQ ID NO: 311 serotype 1], for which the IC50 is 0.059 µM in assay [1] and 0.042 µM in assay [2].
As for SYTMCSGKF [SEQ ID NO: 308 serotype 4], the IC50 in assay [3] was 0.222 µM.
QLKLNWFKK [SEQ ID NO: 311 serotype 2]: the IC50 in assay [4] was determined as 0.778 µM; in [5] it was 0.151 µM.
For the molecule KQWFLDLPL [SEQ ID NO: 310 serotype 1], the IC50 in assay [6] was found to be 0.398 µM; in assay [7], 0.008 µM.
For the molecule SYVMCTGSF [SEQ ID NO: 308 serotype 1], in assay [8], the IC50 was found to be 0.104 µM.
As for RQWFFDLPL [SEQ ID NO: 310 serotype 3], the IC50 was 0.08 µM in [9], 0.051 µM in assay [10] and 0.007 µM in [11].
Take KQWFLDLPL [SEQ ID NO: 310 serotype 4]: the results for the IC50 in assay [12] and in assay [13] were 0.398 µM and 0.008 µM, respectively.
Turning to ALKINWYRK [SEQ ID NO: 311 serotype 3], the results for the IC50 in [14] and in assay [15] were 0.376 µM and 0.193 µM, respectively.
For the molecule ALTLHWFRK [SEQ ID NO: 311 serotype 4], the 50% inhibitory concentration (IC50) in [16] is 0.047 µM; in assay [17], 0.034 µM.
For MCHATFTMR (modifications not checked) […], the REVEAL score at 0 h in assay [18] was determined as 86.8; in assay [19] it was 91.
